B1: untagged WT (pSG5) [not stated] / VPS36 precipitated with HA beads (Fig. 4c) [not stated] (parent)
chain 1: MGNGLSDQTSILSNLPSFQSFHIVILGLDCAGKTTVLYRLQFNEFVNTVPTKGFNTEKIKVTLGNSKTVTFHFWDVGGQEKLRPLWKSYTRCTDGIVFVVDSVDVERMEEAKTELHKITRISENQGVPVLIVANKQDLRNSLSLSEIEKLLAMGELSSSTPWHLQPTCAIIGDGLKEGLEKLHDMIIKRRKMLRQQKKKR
chain 2: MDRFVWTSGLLEINETLVIQQRGVRIYDGEEKIKFDAGTLLLSTHRLIWRDQKNHECCMAILLSQIVFIEEQAAGIGKSAKIVVHLHPAPPNKEPGPFQSSKNSYIKLSFKEHGQIEFYRRLSEEMTQRRWENMPVSQSLQTNRGPQPGRIRAVGIVGIERKLEEKRKETDKNISEAFEDLSKLMIKAKEMVELSKSIANKIKDKQGDITEDETIRFKSYLLSMGIANPVTRETYGSGTQYHMQLAKQLAGILQVPLEERGGIMSLTEVYCLVNRARGMELLSPEDLVNACKMLEALKLPLRLRVFDSGVMVIELQSHKEEEMVASALETVSEKGSLTSEEFAKLVGMSVLLAKERLLLAEKMGHLCRDDSVEGLRFYPNLFMTQS

Variants of: B1
Assay: co-immunoprecipitation (HA beads) with densitometric quantification
Details: with VPS36 precipitated with HA beads (Fig. 4c); HeLa cell lysates; parent: 1; read off a plot

| ratio to parent | Variant |
| --- | --- |
| 2.6 | chain 1 T51N |
| 1.4 | chain 1 Q79L |
